Assay results published in patent publication US20250197496A1 (EVOLVELMMUNE THERAPEUTICS, published 2025).
Values belong to the binder of their own block, whether it stands above or below them.

Assays:
[1] = biological target: T1, Human ULBP2 (recombinant) (human, UniProt Q9BZM5 26-217); test: BLI, antibody on AHC sensor
T1 construct: bought (R&D Systems) as ULBP2-Fc or ULBP2-His; also called recombinant ULBP2
T1 sequence: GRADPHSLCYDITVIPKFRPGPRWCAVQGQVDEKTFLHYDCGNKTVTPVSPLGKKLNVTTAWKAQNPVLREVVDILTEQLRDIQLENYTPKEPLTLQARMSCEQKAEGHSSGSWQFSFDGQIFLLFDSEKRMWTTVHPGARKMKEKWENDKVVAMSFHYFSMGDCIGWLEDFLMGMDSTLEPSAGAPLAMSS
Description: (§1) Bio-layer interferometry (BLI) was performed on the Octet RED384 (Sartorius). […] Subsequently, dissociation was measured over 600 seconds. The kinetic and affinity constants are determined by fitting the data to a 1:1 binding model using the Octet analysis software.

Human ULBP5-His = biological target: T2, Human ULBP5-His (human, UniProt Q6H3X3 26-223, limits assumed); test: BLI, antibody on AHC sensor
T2 construct: bought (R&D Systems), His tag; also called RAET1G
T2 sequence: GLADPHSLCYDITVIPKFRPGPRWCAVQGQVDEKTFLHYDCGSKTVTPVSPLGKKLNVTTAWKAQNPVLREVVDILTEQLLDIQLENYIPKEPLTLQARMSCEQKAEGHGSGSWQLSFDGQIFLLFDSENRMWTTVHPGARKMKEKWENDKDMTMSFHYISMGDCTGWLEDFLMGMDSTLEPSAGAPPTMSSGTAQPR
Description: as §1

Human ULBP6-His = biological target: T3, Human ULBP6-His (human, UniProt Q5VY80 26-218, limits assumed); test: BLI, antibody on AHC sensor
T3 construct: bought (R&D Systems), His tag; also called RAET1L
T3 sequence: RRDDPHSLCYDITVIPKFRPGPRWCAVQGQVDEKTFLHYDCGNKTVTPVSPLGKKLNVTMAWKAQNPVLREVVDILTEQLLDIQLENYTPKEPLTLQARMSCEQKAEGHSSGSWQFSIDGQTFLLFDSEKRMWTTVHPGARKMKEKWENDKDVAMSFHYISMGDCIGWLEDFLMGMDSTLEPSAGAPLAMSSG
Description: as §1

[2] = biological target: T1, Human ULBP2 (recombinant); test: SPR, biotinylated antigen on SA chip
Description: Surface plasmon resonance (SPR) was performed on the Biacore 8K+ (Cytiva). Biotin labelled proteins were captured using the Sensor chip SA (Cytiva). […] The association contact and dissociation time are 60-120 seconds and 120-420 seconds respectively. The chip surface is regenerated by injecting 10 mM glycine, pH 1.5, at a flow rate of 30 μL/min for 60 seconds. The kinetic and affinity constants are determined by fitting the data to a 1:1 binding model using the Biacore insight evaluation software.

[3] = biological target: T4, human ULBP2 (26-216) displayed on yeast (human, UniProt Q9BZM5 26-216); test: flow cytometry on yeast displaying ULBP2; unstained control 385
T4 construct: also called Wild type; wild-type ULBP2
T4 sequence: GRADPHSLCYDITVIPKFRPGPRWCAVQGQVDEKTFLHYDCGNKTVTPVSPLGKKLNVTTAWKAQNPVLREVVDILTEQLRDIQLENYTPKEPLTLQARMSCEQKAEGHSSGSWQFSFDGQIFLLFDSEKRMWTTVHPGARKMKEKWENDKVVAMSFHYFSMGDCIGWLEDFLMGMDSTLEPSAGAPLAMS

[4] = biological target: T5, human ULBP2 (26-216) R106L displayed on yeast (human, UniProt Q9BZM5 26-216); test: as above
T5 construct: also called Human ULBP2 R106L; ULBP2 R106L
T5 chain: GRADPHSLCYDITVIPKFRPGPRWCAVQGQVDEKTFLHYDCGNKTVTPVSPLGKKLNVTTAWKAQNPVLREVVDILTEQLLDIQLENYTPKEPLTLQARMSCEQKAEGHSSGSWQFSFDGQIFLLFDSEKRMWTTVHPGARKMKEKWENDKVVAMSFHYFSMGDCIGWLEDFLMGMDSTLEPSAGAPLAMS

[5] = biological target: T6, human ULBP2 (26-216) P118A on yeast (human, UniProt Q9BZM5 26-216); test: yeast display FACS, 1 nM
T6 construct: fused to V5 tag and Aga2
T6 chain: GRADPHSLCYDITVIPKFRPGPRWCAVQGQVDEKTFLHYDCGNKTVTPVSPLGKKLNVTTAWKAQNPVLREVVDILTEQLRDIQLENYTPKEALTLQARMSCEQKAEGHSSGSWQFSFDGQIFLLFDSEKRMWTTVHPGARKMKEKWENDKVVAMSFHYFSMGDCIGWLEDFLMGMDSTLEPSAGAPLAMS

[6] = biological target: T7, human ULBP2 (26-216) E170A on yeast (human, UniProt Q9BZM5 26-216); test: yeast display FACS, 1 nM
T7 construct: fused to V5 tag and Aga2
T7 chain: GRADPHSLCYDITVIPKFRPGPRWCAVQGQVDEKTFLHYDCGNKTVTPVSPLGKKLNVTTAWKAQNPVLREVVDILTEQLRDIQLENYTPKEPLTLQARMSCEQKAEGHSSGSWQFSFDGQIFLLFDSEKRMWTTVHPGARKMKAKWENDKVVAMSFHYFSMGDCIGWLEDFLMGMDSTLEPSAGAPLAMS

[7] = biological target: T8, human ULBP2 (26-216) D99A on yeast (human, UniProt Q9BZM5 26-216); test: yeast display FACS, 1 nM
T8 construct: fused to V5 tag and Aga2
T8 chain: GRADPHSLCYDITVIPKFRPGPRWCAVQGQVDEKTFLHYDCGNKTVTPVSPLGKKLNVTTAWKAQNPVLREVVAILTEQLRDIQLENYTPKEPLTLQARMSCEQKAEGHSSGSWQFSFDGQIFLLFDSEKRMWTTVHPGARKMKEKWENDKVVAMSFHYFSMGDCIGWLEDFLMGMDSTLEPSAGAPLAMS

[8] = biological target: T9, human ULBP2 (26-216) I108A on yeast (human, UniProt Q9BZM5 26-216); test: yeast display FACS, 1 nM
T9 construct: fused to V5 tag and Aga2
T9 chain: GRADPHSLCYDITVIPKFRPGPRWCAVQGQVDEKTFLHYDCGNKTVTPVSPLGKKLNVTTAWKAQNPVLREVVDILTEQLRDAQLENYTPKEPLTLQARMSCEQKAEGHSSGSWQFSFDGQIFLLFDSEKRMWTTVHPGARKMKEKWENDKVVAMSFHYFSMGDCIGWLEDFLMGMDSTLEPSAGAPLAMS

- Kd [1]: 0.198 nM
- Kd (Human ULBP5-His): 0.345 nM
- Kd (Human ULBP6-His): 0.456 nM
- Kd [2]: 0.22 nM
- koff [2]: 0.000211 s⁻¹
- kon [2]: 957000 M⁻¹ s⁻¹
- MFI [3]: 5180
- MFI [4]: 9160
B1: E12 (antibody, V domains shown)
VH: QVQLVQSGAEVKKPGASVKVSCKASGYTFTNYDINWVRQAPGQGLEWMGWIYPGDGSTYYNEKFKGRVTMTRDTSTSTVYMELSSLRSEDTAVYYCARSGDYGLYYFDYWGQGTLVTVSS
VL: EIVLTQSPATLSLSPGERATLSCRASQSIGTSIHWYQQKPGQAPRLLIYFASESISGIPARFSGSGSGTDFTLTISSLEPEDFAVYYCQQSNSWPLYTFGGGTKVEIK
notes: humanized; also called humanized ULBP2 antibody E12; anti-ULBP2/5/6 antibody

- Gate 1 Freq. of Total [5]: 0.21%
- Gate 2 Freq. of Total [5]: 2.78%
- Gate 3 Freq. of Total [5]: 34.9%
- Gate 1 Freq. of Total [6]: 29.2%
- Gate 2 Freq. of Total [6]: 37.8%
- Gate 3 Freq. of Total [6]: 0.19%
- Gate 1 Freq. of Total [7]: 22.9%
- Gate 2 Freq. of Total [7]: 35.2%
- Gate 3 Freq. of Total [7]: 8.32%
- Gate 1 Freq. of Total [8]: 0.42%
- Gate 2 Freq. of Total [8]: 38.9%
- Gate 3 Freq. of Total [8]: 24.5%
- Kd [1]: 0.532 nM
- Kd [2]: 0.162 nM
- koff [2]: 0.000214 s⁻¹
- kon [2]: 1.32e+06 M⁻¹ s⁻¹
- MFI [3]: 8030
- MFI [4]: 828
B2: A06 (antibody, V domains shown)
VH: EVQLVQSGAEVKKPGESLKISCKGSGYAFSTSWMNWVRQMPGKGLEWMGRIYPGDGDTNYNGNFKGQVTISADKSISTAYLQWSSLKASDTAMYYCARGGELRLEAMDSWGQGTLVTVSS
VL: EIVMTQSPATLSLSPGERITLSCSASSSIHSNYLHWYQQKPGQAPRLLIYRTSNLASGIPARFSGSGSGTDFTLTISSLQPEDFAVYYCQQGFSIPFTFGQGTKLEIK
notes: humanized; also called humanized ULBP2 antibody A06; anti-ULBP2 antibody
- binding result (Human ULBP5-His): no binding (tested: 250 nM (highest concentration tested))
- binding result (Human ULBP6-His): no binding (tested: 250 nM (highest concentration tested))
